# Source: the DeepSol protein solubility set
# Experiment: soluble on expression in E. coli; label from the status in PepcDB or PDB records
row,Sequence,soluble on expression in E. coli
1,MGSDKIHHHHHHMISQRALEAFRAVMTTGTVSAAAEELNVSQPAVSRLVRDLEEYTQLRLFSRHGGRIVATREAHEFNAEIERSFLGLRVIEQAAREIRQGRRGTVSVAVMPALAQTILPDVMADVRVSHPDFRLELLAMPTQSIVRQVATRQCPLGLTSPTHHANEVDVVKSGSLPYRCVMPDGHPLAAYEIIRLQDLSGMEFINYTDATATGRMLDHRFAHMTTPPVVNARAPISPVIAALVRKGLGVAILDPFTAQDHVNRGGVSRPVQIDEEFHWSFIKPYGEKLSSDLMAVISIFEDLSKNYA,not soluble
2,MSLSGTDIHTSDYYFLFEEKFRGSRELVKARLRRYIPYFKGCRRVLDIGCGRGEFLELCKEEGIESIGVDINEDMIKFCEGKFNVVKSDAIEYLKSLPDKYLDGVMISHFVEHLDPERLFELLSLCYSKMKYSSYIVIESPNPTSLYSLINFYIDPTHKKPVHPETLKFILEYLGFRDVKIEFFEECEELTKLAKIDSNTVSEEVIRVINENIEKLNRILFGPQDYAIIAKKEGHHHHHH,soluble
3,MLSVMRMQIPKTHPRYESLMKREKIIEALDKGILAKAGLIAHGRGETFDYLIGEKTAPIALEAIKAAAALLILAENPVISVNGNTVALAIDEVVELAKELNGKIEVNLFYRTKERELAIKRAFEEKFKDDIETGKIKILGIDDANKQIPNLDSLRGKVSEEGIFTADVVLVPLEDGDRAEALVNMGKKVIAIDLNPLSRTARKSTITIVDELTRAMPLLIKYVKEFKNKDREELLKIVEDFDNKKNLKDMIDYIAERLKNLSLEHHHHHH,soluble
4,MLFEGLPCLAVWCKNRLSAVLPVGGLNVSENLLEIETHPFDPVLPPKAAVMMMGTFPPKEDKRAMQFHYPNFQNDMWRVYGLVFFNDAAHFQRLSEKAFDAEKIKAFLHERGIASCPTVLKAVRQHGNASDKFLKVVETVDLAAVLAKIPECRHICTTGGKATEILLDIQGGGIKMPKTGETVPFPFAGRDLTLTRLPSTSRAYPLSLAKKAAAYRAFFEMAGLCEKQLLEHHHHHH,not soluble
5,MKYSLCTISFRHQLISFTDIVQFAYENGFEGIELWGTHAQNLYMQEYETTERELNCLKDKTLEITMISDYLDISLSADFEKTIEKCEQLAILANWFKTNKIRTFAGQKGSADFSQQERQEYVNRIRMICELFAQHNMYVLLETHPNTLTDTLPSTLELLGEVDHPNLKINLDFLHIWESGADPVDSFQQLRPWIQHYHFKNISSADYLHVFEPNNVYAAAGNRTGMVPLFEGIVNYDEIIQEVRDTDHFASLEWFGHNAKDILKAEMKVLTNRNLEVVTSENLYFQ,soluble
6,MMKSIILIVLDGLGDRPGSDLQNRTPLQAAFRPNLNWLASHGINGIMHPISPGIRCGSDTSHMSLLGYDPKVYYPGRGPFEALGLGMDIRPGDLAFRANFATNRDGVIVDRRAGRENKGNEELADAISLDMGEYSFRVKSGVEHRAALVVSGPDLSDMIGDSDPHREGLPPEKIRPTDPSGDRTAEVMNAYLEEARRILSDHRVNKERVKNGRLPGNELLVRSAGKVPAIPSFTEKNRMKGACVVGSPWLKGLCRLLRMDVFDVPGATGTVGSNYRGKIEKAVDLTSSHDFVLVNIKATDVAGHDGNYPLKRDVIEDIDRAMEPLKSIGDHAVICVTGDHSTPCSFKDHSGDPVPIVFYTDGVMNDGVHLFDELSSASGSLRITSYNVMDILMQLAGRSDKFGSLEHHHHHH,soluble
7,MLSQLPLFAGGEIVRGFGRGSKELGIPTANFPLEVVKSLPESLPTGAYYGWANVDNGPVHKMVLSIGWNPFYNNKEKSVETHMLHDFNCDLYGQTLKICIVGYLRPERSFDSLESLIAAIRGDIEQAKAFLDEADKAKLKEAPFFTEKLCSSKLEHHHHHH,not soluble
8,MGSDKIHHHHHHMKSFDEMTPKEIVQELDKYIVGQYEAKKAVAIAVRNRIRRQKLPEEWRKEVLPKNILMIGPTGVGKTEIARRLAQLSGSPFLKVEATRFTEVGYVGKNVDSMIRDLVEISVNMVKQEKIKEVERQAEELVEERILDALVPESKAMPVVTNPFINLITGGQQQQYTPEDRRRFRAKREEMREKLRKGELEDEEIEIELEETVSPFMGIFGPGMEDLGIEITNMFSGMLPKRKKKRKMKVSEARKVLLPLEAEKLIDMDKVVQEALDRAQNRGIIFIDEIDKIAGKESAVGPDVSRQGVQRDLLPIVEGTTIMTKYGPVRTDFILFIAAGAFHVSRPSDLIPELQGRFPIRVELSPLTEEDFVRILKEPENAIIKQYQALLSTEGVELVFTEDGIREMARIAYQLNQRLENIGARRLYTVAEKVLEEISFEAPDIPEKRVVVDAEYVRRRLEKIVQDEDLSAYIL,not soluble
9,CLAEGTRIFDPVTGTTHRIEDVVDGRKPIHVVAAAKDGTLHARPVVSWFDQGTRDVIGLRIAGGAILWATPDHKVLTEYGWRAAGELRKGDRVAQPRRFDGFGDSAPIPARVQALADALDDKFLHDMLAEELRYSVIREVLPTRRARTFDLEVEELHTLVAEGVVVHN,soluble
10,MFTCKVNEHITIRLLEPKDAERLAELIIQNQQRLGKWLFFAENPSSADTYRETIIPDWRRQYADLNGIEAGLLYDGSLCGMISLHNLDQVNRKAEIGYWIAKEFEGKGIITAACRKLITYAFEELELNRVAICAAVGNEKSRAVPERIGFLEEGKARDGLYVNGMHHDLVYYSLLKREWEGEKLEHHHHHH,not soluble
11,AIAPDESAQVRFLIVGRTGWIANMVAELLEQRGERYAFASFRLEQREACELELDALRPQRVLNCAGVTGRPNVDWCEDHRRETVRSNVLGVLNLADCCASRGIHLTNFATGCLYHYDDGEHRPTAEGGRPFTEDDPPNFFGSYYSRTKAMVEELLRSAFDNVLILRLRMPVSDDLSPRSFVAKIARYEKVVNIPNSMTVLTELLPVALDMSERGLTGVYNFTNPGSISHNEVLELYRKYIDPKFQWKNFTLEEQAKILKAGRSNCELDVRKLLRDNPGAQIREVHAAMEEVFRRMQAKGVKPLAAP,soluble
12,MSLQRYFIELTKQQIEEAPTFSITGEEVHHIVNVMRMNEGDQIICCSQDGFEAKCELQSVSKDKVSCLVIEWTNENRELPIKVYIASGLPKGDKLEWIIQKGTELGAHAFIPFQAARSVVKLDDKKAKKKRERWTKIAKEAAEQSYRNEVPRVMDVHSFQQLLQRMQDFDKCVVAYEESSKQGEISAFSAIVSSLPKGSSLLIVFGPEGGLTEAEVERLTEQDGVTCGLGPRILRTETAPLYALSAISYQTELLRGDQEGGSHHHHHH,soluble
13,SLARMSRRSRGAAGAQSVVKPETPMAQVLHQFNYCPCQYLEQNWIVPKQPWLLNLDGWRDNPNFNLWCLEEWALAPVPETAFNKPHHSLALLPPDALSTLMLTIGGALHSFAMRQVVLKKPKQCLNNVFGLDIARFLIQQGPMLLSQWPKGWQKALPDVMKEDEVERHMLKQGYAWMKFILASSSHDILLRWQFKLDQSLSQVKENTSWLVEEQRDLAYRLTKKIAKQVIPQWFHLLK,soluble
14,MSDASLKTYQKQWAYQKYWVMAHSQQHYNALRELFKGNQWSEEKVLTFHCLIEEAQAIPPTVKSLRTAYQHVWGYFKKVASQEEKDHFKDLDAQLETKSEEMLCFLQEMTAHYQPSYLLSCRLITKGP,not soluble
15,MAICPELAQTDKSALANLSDETETLKNFTDEVQTSSSFSSSGGRQSSPLTSGSKLEREKQTPSLEQGDTQSELLDYKNYEKKLSKKWINYLKLKDSNFERHQPDTKLPTEITRVSDEELNALQSYCTMKINLIHRRGDSKKKTSSRHKKLHLGLDVEASERDAFSCTVPDELLNRIYFKNMRTTPKQEAAAKQHISYQCPYCNRKRAELALSAFLKQKKTLLESFLLQERIDEHLHTKDFLTRIGEAHQDFPRLSDDPRIIWKRLTEKSHIRYSGFERSETEQKMQRDGNSACHLPFSLPFLKRLTLIKPELVIVNDNV,not soluble
16,VTLRVVPESLAGASAAIEAVTARLAAAHAAAAPFIAAVIPPGSDSVSVCNAVEFSVHGSQHVAMAAQGVEELGRSGVGVAESGASYAARDALAAASYLSGGL,not soluble
17,MTRDDDDDEDDEEEEDSGAWGRESYAFDGFHPTEEFGFSFSPRGGMRFHGNFGFDDLVRDFNSIFSEMGAWTLPSHSPELPGPESETPGVRLREGQTLRDSMLKYPDSHQPRIFEGVLESHAKPESSKPAPDWGSQGPFHRLDDTWPVSPHSRAREDKDLDSQVSQEGLGPLLQPQPKSYFKSISVTKITKPDGTVEEHRTVVDGEGRRETTVTHQEAHDSSRSDPDPPRSSALDDPFSILDLLLGRWFRSR,not soluble
18,MGSDKIHHHHHHMKELRIDPITNDVVIFATDRLKRPLDTADIPNEDEETNEYDEECPFCKGNEAHATDALFEIDSEEGWLVKSVYNKFPIIDDMARDVYGVHEVMIESDKHNRSFYNMSQKEFEDVFFMYRNRFRDLSKDDKVEYVSIFKNFLRKAGASLMHPHAQILSMSFIPPEITNELLVSKEYYDSNKSSLYDDLIENEISLDRRVVYNGEAFLVLIPYATKYSGEVRIIFKDKIEFGELNDNNIQELSTIFEKLFKKLYNINGYMPFNLCIHTHPTKIETKSYFNVHMHIIPRKYNFGGFELGTNMYVSSMSPEDLTKKLKID,not soluble
19,GMDTRKLLLTAQEISRMKGEHKVHFLNPGAVRVNKSLGDAVGLRHMGIHLIQIEPGKESTEYHLHHYEEEAVYVLSGKGTLTMENDQYPIAPGDFVGFPCHAAAHSISNDGTETLVCLVIGQRLDQDVVDYPNQHKRLYRNNGEWNLVDMADIRVLREPTQK,soluble
20,MAHHHHHHMGYMQEREEMSAMVDQRTAQLEALTSSVAEAQKKLQALDERMMALEPHGNVQATAPAGATATTSKRARAGASSVGGAWDAAGVASATKMPPEELKKKVEESIEHIFHLLRTGDQQLKLTAQNPNLRKSVDGAKVAGNASHGRSRAASLHRGPKALQSSTMQTGKMKAATGGSSYDSQRPSSGAHRSGKSTVGATTAAGAADAASQQQHHDASMGPVEMLTIIENKLEEYHRYLSDPANHVELALMKAVMKQSDKQRRRQARIIHLANQEDEQEERIRRALERSQAPIIHKIGKPFRPRSFVSKPIDEKSRRKAERAAAALNGSLDNIDSDEDGAEFFM,soluble
21,MRTPLSSVSPQLVQRFHELGFTPSSIRNFLGRPGFAAISRGEPASVLYAMRENEDSDFYPLIATFILHRPVAAEALHRVLGGSLTDQLTETGVLEIVDASKAYLTAKIDIRWLELEDDLFWVFSDTDASMIADHVPGKDHVLGVGAASLSLLATTPRSPVNSVLDLGTGSGVQALGQLRHARSVTATDVHPRALDFAEATFAGAHFDVEILDGSWFEPIKNRKFDRIVANPPFVVGPPEIEHVYRDSGLDLDGATETVVRGAVDHLHSNGTAHLLGSWVHKNGESVASRVAEWIPSHGVIAWFLQRDTVDPIQYVNTWLRDESIDPRSEIGFKRTLSWLDHFSRAKVEAVGFGYVAIQRVDDSIPSEVYFEELTHQVDDYLGDEIEEFFVRVDWLREKNRDGIAQSQFYLRPGVAKESVSVTDIDSGMGFTHLKYRITRTEGPRWSHEVDEHIVSVIAGLHPEGLTLEDVATLYAVSNGLDDESFVDAIIDPVVALVRHGILLPAEITKGW,soluble
22,VIVAGARTPIGKLMGSLKDFSASELGAIAIKGALEKANVPASLVEYVIMGQVLTAGAGQMPARQAAVAAGIGWDVPALTINKMCLSGIDAIALADQLIRAREFDVVVAGGQESMTKAPHLLMNSRSGYKYGDVTVLDHMAYDGLHDVFTDQPMGALTEQRNDVDMFTRSEQDEYAAASHQKAAAAWKDGVFADEVIPVNIPQRTGDPLQFTEDEGIRANTTAAALAGLKPAFRGDGTITAGSASQISDGAAAVVVMNQEKAQELGLTWLAEIGAHGVVAGPDSTLQSQPANAINKALDREGISVDQLDVVEINEAFAAVALASIRELGLNPQIVNVNGGAIAVGHPLGMSGTRITLHAALQLARRGSGVGVAALCGAGGQGDALILRAG,not soluble
